Patent US20030023032A1

Biological target: sigma 54 (sigma^54) transcription factor from Vibrio harveyi, product of the rpoN gene (Vibrio harveyi)
Assay: cell-based or functional assay

Substance | % W.T. Lux; strain BNL248, luxN L166R, rpoN::Cm^r (sigma^54 absent) (% of wild type) | % W.T. Lux; strain BNL248, luxN L166R, rpoN::Cm^r, with Plac-rpoN in trans (sigma^54 restored) (% of wild type) | % W.T. Lux; strain JAF549, luxN L166R, wild type rpoN present (% of wild type) | % W.T. Lux (bioluminescence per cell at high cell density); strain JAF548, luxO D47E, wild type rpoN present (% of wild type) | % W.T. Lux; strain BNL244, luxO D47E, rpoN::Cm^r (sigma^54 absent) (% of wild type) | % W.T. Lux; strain BNL244, luxO D47E, rpoN::Cm^r, with Plac-rpoN in trans (sigma^54 restored) (% of wild type) | Siderophore units (chromazurol S assay); strain JAF548, luxO D47E, wild type rpoN present (siderophore units) | Siderophore units; strain BNL244, luxO D47E, rpoN::Cm^r (sigma^54 absent) (siderophore units) | Siderophore units; strain BNL244, luxO D47E, rpoN::Cm^r, with Plac-rpoN in trans (sigma^54 restored) (siderophore units)
phospho-LuxO (wild type LuxO, constitutively phosphorylated in luxN L166R strains), Vibrio harveyi (from UniProt P0C5S5 1-453) | 55 | 1.1 | 0.004 |  |  |  |  |  | 
LuxO D47E ("locked" form mimicking activated phospho-LuxO), Vibrio harveyi (from UniProt P0C5S5 1-453) |  |  |  | 0.002 | 77 | 1.4 | 50 | 4 | 25
